Assay [1] deals with T1, human Fc receptor protein FcRn (human, UniProt P55899 24-297; P61769 21-119, biotinylated).
T1 construct: Biotinylated protein captured on SA sensors
Briefly: BLI (ForteBio), biotinylated receptor on SA sensor, antibody from 5,000 nM, 1:1 global fit. From the text:
(§1) The dynamic affinity of the antibodies 101A6HZ, 101A6HZm and Hu24 with human Fc receptor proteins CD16a, CD32a, CD32b, CD64 and FcRn was detected through ForteBio (Pall life sciences).

In assay [2] the target is T2, human PTK7 on cells (tumor cells endogenously expressing PTK7); CHO-hPTK7, CHO-S-hPTK7 and 293T-hPTK7 … (human, UniProt Q13308 31-1070).
T2 sequence (looked up): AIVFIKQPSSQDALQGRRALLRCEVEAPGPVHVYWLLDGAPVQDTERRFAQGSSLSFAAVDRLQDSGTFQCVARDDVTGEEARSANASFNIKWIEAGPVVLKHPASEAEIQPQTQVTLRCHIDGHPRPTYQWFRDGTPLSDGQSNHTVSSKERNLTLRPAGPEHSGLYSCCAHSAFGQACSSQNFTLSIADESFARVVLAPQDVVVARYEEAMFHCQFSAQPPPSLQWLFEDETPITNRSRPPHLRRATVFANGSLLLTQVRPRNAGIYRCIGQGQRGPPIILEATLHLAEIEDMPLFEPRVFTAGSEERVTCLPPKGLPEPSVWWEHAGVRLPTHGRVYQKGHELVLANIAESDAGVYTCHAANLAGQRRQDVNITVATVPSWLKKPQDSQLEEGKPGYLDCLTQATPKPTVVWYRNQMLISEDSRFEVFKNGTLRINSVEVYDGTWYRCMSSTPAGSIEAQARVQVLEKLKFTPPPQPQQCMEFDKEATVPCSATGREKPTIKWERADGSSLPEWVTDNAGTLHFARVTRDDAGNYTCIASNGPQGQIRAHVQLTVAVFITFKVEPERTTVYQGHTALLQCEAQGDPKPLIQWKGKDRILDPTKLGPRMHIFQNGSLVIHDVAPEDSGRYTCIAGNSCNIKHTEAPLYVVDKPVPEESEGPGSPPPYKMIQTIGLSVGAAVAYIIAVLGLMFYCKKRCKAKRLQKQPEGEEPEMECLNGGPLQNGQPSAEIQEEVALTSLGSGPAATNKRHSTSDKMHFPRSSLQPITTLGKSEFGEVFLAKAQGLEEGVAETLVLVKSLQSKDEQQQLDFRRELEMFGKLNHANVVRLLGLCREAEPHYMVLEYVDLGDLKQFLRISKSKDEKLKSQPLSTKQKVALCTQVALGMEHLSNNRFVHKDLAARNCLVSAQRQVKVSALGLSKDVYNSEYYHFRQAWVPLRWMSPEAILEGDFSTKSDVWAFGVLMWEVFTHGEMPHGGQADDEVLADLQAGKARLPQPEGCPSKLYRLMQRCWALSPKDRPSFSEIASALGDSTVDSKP
Briefly: cell-based or functional assay.

Assay [3] deals with T3, human Fc receptor protein CD16a (human, UniProt P08637 17-208, biotinylated).
T3 construct: Biotinylated protein captured on SA sensors
Briefly: BLI (ForteBio), biotinylated receptor on SA sensor, antibody in solution.
Text: as §1

Assay [4] has as its target T4, human Fc receptor protein CD64 (human, UniProt P12314 16-292, limits assumed, biotinylated).
T4 construct: Biotinylated protein captured on SA sensors
The description is as above.
Text: as §1

The target of assay [5] is T5, human Fc receptor protein CD32b (human, UniProt P31994 43-217, biotinylated).
T5 construct: Biotinylated protein captured on SA sensors
T5 sequence (looked up): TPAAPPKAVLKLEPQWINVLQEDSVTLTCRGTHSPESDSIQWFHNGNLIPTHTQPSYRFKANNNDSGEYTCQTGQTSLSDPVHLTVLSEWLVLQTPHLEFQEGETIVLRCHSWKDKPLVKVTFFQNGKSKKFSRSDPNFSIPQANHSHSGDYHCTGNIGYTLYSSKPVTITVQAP
The assay is described as above.
Text: as §1

Assay [6] addresses T6, human Fc receptor protein CD32a (human, UniProt P12318 34-217, biotinylated).
T6 construct: Biotinylated protein captured on SA sensors
T6 sequence (looked up): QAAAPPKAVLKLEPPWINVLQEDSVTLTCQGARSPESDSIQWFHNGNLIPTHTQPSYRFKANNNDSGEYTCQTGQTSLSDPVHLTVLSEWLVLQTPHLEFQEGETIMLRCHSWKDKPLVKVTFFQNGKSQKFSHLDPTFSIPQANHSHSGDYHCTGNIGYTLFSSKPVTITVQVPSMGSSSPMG
The assay is described as above.
Text: as §1

These results are taken from patent publication US20260250420A1 (SICHUAN KELUN BIOTECH BIOPHARMACEUTICAL, published 2026).

T3 sequence (P08637 17-208 limits assumed): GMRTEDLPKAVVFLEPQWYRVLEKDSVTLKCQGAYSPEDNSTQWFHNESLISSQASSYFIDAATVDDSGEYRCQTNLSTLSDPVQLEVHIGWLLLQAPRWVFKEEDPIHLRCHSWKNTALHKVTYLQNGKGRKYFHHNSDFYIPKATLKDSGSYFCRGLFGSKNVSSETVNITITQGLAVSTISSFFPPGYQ
T1 sequence (P55899 24-297 limits assumed, form in doubt, chain 1 of 2): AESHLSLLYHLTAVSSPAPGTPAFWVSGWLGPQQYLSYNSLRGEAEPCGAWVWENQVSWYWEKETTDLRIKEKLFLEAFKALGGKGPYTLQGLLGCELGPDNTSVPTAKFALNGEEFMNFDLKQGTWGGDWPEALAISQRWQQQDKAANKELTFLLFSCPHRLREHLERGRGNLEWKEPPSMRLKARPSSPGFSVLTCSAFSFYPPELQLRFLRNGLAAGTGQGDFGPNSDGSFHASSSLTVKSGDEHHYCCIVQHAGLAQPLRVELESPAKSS
T1 sequence (P61769 21-119 limits assumed, form in doubt, chain 2 of 2): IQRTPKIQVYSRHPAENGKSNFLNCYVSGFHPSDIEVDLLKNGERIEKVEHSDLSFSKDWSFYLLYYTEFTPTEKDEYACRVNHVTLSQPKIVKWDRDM
T4 sequence (P12314 16-292 limits assumed): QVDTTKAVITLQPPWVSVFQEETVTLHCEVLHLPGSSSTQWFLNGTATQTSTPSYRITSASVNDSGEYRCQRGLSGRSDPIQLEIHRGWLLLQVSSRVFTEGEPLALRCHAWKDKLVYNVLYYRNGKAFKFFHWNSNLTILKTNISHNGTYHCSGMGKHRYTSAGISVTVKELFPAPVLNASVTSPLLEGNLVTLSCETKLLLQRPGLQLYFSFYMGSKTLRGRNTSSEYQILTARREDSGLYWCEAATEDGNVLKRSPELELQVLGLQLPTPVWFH

B1: 101A6HZm (101A6HZ with mutant human heavy chain constant region IgG1m) (antibody)
heavy: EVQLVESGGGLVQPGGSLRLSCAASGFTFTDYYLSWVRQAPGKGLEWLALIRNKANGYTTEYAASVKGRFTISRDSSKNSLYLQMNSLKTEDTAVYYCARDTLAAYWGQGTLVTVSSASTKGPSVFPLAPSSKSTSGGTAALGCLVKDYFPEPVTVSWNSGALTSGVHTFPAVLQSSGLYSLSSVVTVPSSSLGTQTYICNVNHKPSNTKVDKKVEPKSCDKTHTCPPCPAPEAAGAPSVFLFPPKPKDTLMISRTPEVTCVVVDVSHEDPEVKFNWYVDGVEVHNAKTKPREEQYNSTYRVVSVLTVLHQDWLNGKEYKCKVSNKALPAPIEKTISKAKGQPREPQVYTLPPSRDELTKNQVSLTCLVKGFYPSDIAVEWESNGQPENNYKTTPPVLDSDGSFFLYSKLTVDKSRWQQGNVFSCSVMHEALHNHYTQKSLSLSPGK
light: DIVMTQSPDSLAVSLGERATINCKASQDVGSAVIWYQQKPGQSPKLLIYWASTRHTGVPDRFSGSGSGTDFTLTISSLQAEDVAVYYCQQYSSYPLTFGQGTKLEIKRTVAAPSVFIFPPSDEQLKSGTASVVCLLNNFYPREAKVQWKVDNALQSGNSQESVTEQDSKDSTYSLSSTLTLSKADYEKHKVYACEVTHQGLSSPVTKSFNRGEC
notes: light chain as in 101A6HZ; also called anti-human PTK7 humanized mutant antibody
In assay [1], B1 came in with a dissociation constant (Kd) of 16.6 nM. In assay [2], the “Cell endocytosis, EC50, A431 cells” value came to 0.0732 µg/mL; the “Cell endocytosis, EC50, HCC1806 cells” value is 0.0576 µg/mL; the “Cell endocytosis, EC50, NCI-H358 cells” value stood at 0.0729 µg/mL; the “Cell endocytosis, EC50, OVCAR3 cells” value turned out to be 0.0665 µg/mL. The binding result in assay [3] is “no binding (tested: initial concentration of 5,000 nM)”. In assay [4], the binding result was “no binding (tested: initial concentration of 5,000 nM)”. For the same molecule, in assay [5], the binding result is “no binding (tested: initial concentration of 5,000 nM)”. In addition, the binding result in assay [6] is reported as “no binding (tested: initial concentration of 5,000 nM)”.
